The text below walks through data of publication PMC3445539.

One data set concerns the target mCherry-CENP-O (human) (UniProt Q9BU64). The data set can be described thus: FRET or BRET; FLIM: donor fluorescence lifetime by time-correlated single photon counting at kinetochores of living HEp-2 cells, EGFP donor and mCherry acceptor.
Data set [1] has as its target mCherry-CENP-P (UniProt Q6IPU0). The data set is described as above.
For data set [2] the target is unchanged. The data set can be described thus: fluorescence cross-correlation spectroscopy (FCCS); nucleoplasm free of kinetochores in living double-transfected U2OS cells, EGFP and mCherry fusions, 37°C.

Chain of UniProt Q9BU64 (Q9BU64 whole entry): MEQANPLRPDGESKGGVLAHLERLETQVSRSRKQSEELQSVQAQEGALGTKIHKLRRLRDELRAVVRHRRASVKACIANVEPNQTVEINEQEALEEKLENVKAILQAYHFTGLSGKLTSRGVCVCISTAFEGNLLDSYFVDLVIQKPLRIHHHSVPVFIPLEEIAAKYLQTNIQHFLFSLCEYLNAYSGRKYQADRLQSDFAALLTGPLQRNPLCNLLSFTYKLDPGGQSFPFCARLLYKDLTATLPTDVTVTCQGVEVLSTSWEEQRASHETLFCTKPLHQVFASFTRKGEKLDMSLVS

As to “CENP-P-EGFP (from UniProt Q6IPU0 1-288) (natural protein)”, the donor fluorescence lifetime in the presence of the acceptor with mCherry-CENP-O (human) came out at 2.16 nsec. With “CENP-Q-EGFP (from UniProt Q7L2Z9 1-268) (natural protein)”, the donor fluorescence lifetime in the presence of the acceptor in the data set with mCherry-CENP-P [1] is 2.08 nsec.

Turning to EGFP-CENP-O, the “percent hetero-dimers, the authors' corrected estimate” value with mCherry-CENP-P [2] (other: fluorescence cross-correlation spectroscopy (FCCS)) was “we estimate 40–60%”.

On to “EGFP-CENP-O (from UniProt Q9BU64 1-300) (natural protein)”, for which, in the data set with mCherry-CENP-P [2], the percent hetero-dimers, A(CC)/A(AC) was in the range of 20 to 30% and the percent of the molecules co-migrating (cross-correlation amplitude over mCherry amplitude) came to 29%.
